In IntAct's records for PubMed 19632184:

B1: Kinesin-like protein KIF2C (Homo sapiens), Q99661 (parent)
chain: MAMDSSLQARLFPGLAIKIQRSNGLIHSANVRTVNLEKSCVSVEWAEGGATKGKEIDFDDVAAINPELLQLLPLHPKDNLPLQENVTIQKQKRRSVNSKIPAPKESLRSRSTRMSTVSELRITAQENDMEVELPAAANSRKQFSVPPAPTRPSCPAVAEIPLRMVSEEMEEQVHSIRGSSSANPVNSVRRKSCLVKEVEKMKNKREEKKAQNSEMRMKRAQEYDSSFPNWEFARMIKEFRATLECHPLTMTDPIEEHRICVCVRKRPLNKQELAKKEIDVISIPSKCLLLVHEPKLKVDLTKYLENQAFCFDFAFDETASNEVVYRFTARPLVQTIFEGGKATCFAYGQTGSGKTHTMGGDLSGKAQNASKGIYAMASRDVFLLKNQPCYRKLGLEVYVTFFEIYNGKLFDLLNKKAKLRVLEDGKQQVQVVGLQEHLVNSADDVIKMIDMGSACRTSGQTFANSNSSRSHACFQIILRAKGRMHGKFSLVDLAGNERGADTSSADRQTRMEGAEINKSLLALKECIRALGQNKAHTPFRESKLTQVLRDSFIGENSRTCMIATISPGISSCEYTLNTLRYADRVKELSPHSGPSGEQLIQMETEEMEACSNGALIPGNLSKEEEELSSQMSSFNEAMTQIRELEEKAMEELKEIIQQGPDWLELSEMTEQPDYDLETFVNKAESALAQQAKHFSALRDVIKALRLAMQLEEQASRQISSKKRPQ

Variants of: B1
Conditions: with mare1_human MAPRE1, Q15691
mare1_human MAPRE1, Q15691, sequence (Q15691 whole entry): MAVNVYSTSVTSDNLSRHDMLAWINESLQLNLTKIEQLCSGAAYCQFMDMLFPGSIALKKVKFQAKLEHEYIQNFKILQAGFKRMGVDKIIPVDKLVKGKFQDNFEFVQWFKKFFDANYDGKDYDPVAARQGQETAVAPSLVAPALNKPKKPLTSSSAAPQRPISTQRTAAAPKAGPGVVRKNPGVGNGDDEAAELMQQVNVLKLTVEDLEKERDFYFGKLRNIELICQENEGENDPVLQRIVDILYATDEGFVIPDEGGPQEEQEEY

| Variant | effect of a mutation on the interaction |
| --- | --- |
| I100N;P101N | decreasing interaction |
